# PMC2923267 (Biochemistry, 2010)
# B1: WbpE from Pseudomonas aeruginosa PAO1 (enzyme, UniProt Q9HZ76 1-359, looked up)
# chain: MIEFIDLKNQQARIKDKIDAGIQRVLRHGQYILGPEVTELEDRLADFVGAKYCISCANGTDALQIVQMALGVGPGDEVITPGFTYVATAETVALLGAKPVYVDIDPRTYNLDPQLLEAAITPRTKAIIPVSLYGQCADFDAINAIASKYGIPVIEDAAQSFGASYKGKRSCNLSTVACTSFFPSKPLGCYGDGGAIFTNDDELATAIRQIARHGQDRRYHHIRVGVNSRLDTLQAAILLPKLEIFEEEIALRQKVAAEYDLSLKQVGIGTPFIEVNNISVYAQYTVRMDNRESVQASLKAAGVPTAVHYPIPLNKQPAVADEKAKLPVGDKAATQVMSLPMHPYLDTASIKIICAALTN
# Biological target: the molecule itself
# Assay: AUC
protein,measurement,value
B1,stoichiometry N,2
